For three molecules, Kd results are on record in publication PMC4427524 (Molecular cell, 2015).

Where no end group is shown, it is not given here.

In the assay the target is purified recombinant WDR5 (used for FPA) (UniProt P61964 1-334). The experiment in a line: fluorescence polarisation. On the technique in general: Fluorescence polarisation rises when a labelled molecule tumbles more slowly, as on binding a larger partner.
Take DEEEEDEESV [MbIIIb mutant peptide WBM (I262/V264/V265 to glutamic acid)]: the Kd is above 500 µM. Take DEEEIDGVSV [MbIIIb mutant peptide V264G]: the Kd was above 500 µM. As to DEEEIDVVSV (also: FITC label (position not given here)) [FITC-labeled MbIIIb peptide (residues 258–267 of human c-MYC)], the Kd is 9.3 µM.

As a reminder, the Kd is the concentration at which binding is half-saturated.
